According to patent publication US20260258137A1 (HARBOUR BIOMED SHANGHAI, published 2026):
Substitutions are numbered along the chain they refer to. Numbers in names are those of the source. Like-named read-outs stand apart in the source and are kept apart here. Each block holds one binder with its values, some of them ahead of it.

Experiments:
[1] = target: T1, human PD-L1 on Hep3B cells co-expressing human PD-L1 and OS8 (human, UniProt Q9NZQ7 19-290); test: cell-based or functional assay
[2] = target: T2, Human PD-L1 (Acrobiosystems, PD1-H5229) (human, UniProt Q9NZQ7 19-238); test: ELISA, coated human PD-L1
T2 construct: bought reagent; also called human PD-L1 protein
Experimental: After the liquid was discarded, the PBST buffer (pH 7.4, containing 0.05% tween-20) was used to wash the plate for 3 times. 250 μL of 2% BSA blocking buffer was added, and was incubated at the condition of 37° C. for 1 hr. The blocking buffer was discarded, and the PBST buffer (pH 7.4, containing 0.05% tween-20) was used to wash the plate for 3 times. The antigen binding proteins to be tested, serially diluted 5-fold starting from the concentration of 100 nM, 8 concentration gradients in total, were added at 100 μL per well, and were then incubated at 37° C. for 1 hr. […] After washing with PBST buffer (pH 7.4, containing 0.05% tween-20) for three times, the goat anti-human HRP secondary antibody (Invitrogen, A18805) that was diluted 4000-fold was added, and was incubated away from light at the condition of 37° C. for 1 hr. After washing by PBST buffer (pH 7.4, containing 0.05% tween-20) for three times, 100 μL/well of TMB (Biopanda, TMB-S-003) was added, and was placed away from light at room temperature for about 5 mins; stop solution (BBI life sciences, E661006-0200) was added to each well at 50 μL/well to stop the reaction. The Microplate Reader Enspire (PerkinElemer) was used to detect the absorption values at 450 nm (OD450). The software GraphPad Prism 8 was applied to perform data processing and plotting analysis, the parameters such as binding curves and EC50 values were obtained by four-parameter non-linear fitting.

[3] = target: T3, cynomolgus PD-L1 on CHO-K1 cells (CHO-K1/cynoPD-L1, Nanjing Genscript, M00573) (cynomolgus, UniProt G7PSE7 19-290); test: flow cytometry on CHO-K1/cynoPD-L1 cells
T3 construct: also called CHO-K1 cells overexpressing cynomolgus PD-L1
Text: To study the binding activity of the PD-L1 antigen binding proteins to human/cynomolgus PD-L1 in vitro, this example uses the CHOK1 cell line overexpressing human PD-L1 (CHO-K1/hPD-L1, Nanjing Genscript, M00543) or the CHOK1 cell line overexpressing cynomolgus PD-L1 (CHO-K1/cynoPD-L1, Nanjing Genscript, M00573) to perform binding experiments at cellular level. In brief, the PD-L1 cells were digested, and resuspended in F-12K complete medium, and the cell density was adjusted to 1× 10⁶ cells/mL. […] The cells were placed at 4° C., incubated away from light for 1 hr. Then, 100 μL/well of pre-cooled PBS was added to wash cells twice. The cells were centrifuged at 500 g, 4° C. for 5 mins, and the supernatant was discarded. […] 200 μL/well of pre-cooled PBS was added to wash cells twice, and the cells were centrifuged at 500 g, 4° C. for 5 mins, and the supernatant was discarded. Finally, the cells were resuspended with 200 μL/well of pre-cooled PBS. The signal values of fluorescent luminescence were read using BD FACS MAYTOII. The flow cytometer BD FAC MAYTOII was used to read the signal values of fluorescent luminescence, and the software FlowJo v10 (FlowJo, LLC) was used to process and analyze data. The software GraphPad Prism 8 was applied to perform data processing and plotting analysis, and the parameters such as binding curves and EC50 values were obtained by four-parameter non-linear fitting.

[4] = target: T4, human PD-L1 on CHO-K1 cells (CHO-K1/hPD-L1, Nanjing Genscript, M00543) (human, UniProt Q9NZQ7 19-290); test: flow cytometry competition: biotin-hPD-1 binding to CHO-K1/hPD-L1 cells
T4 construct: whole, on cells; also called CHO-K1 cells overexpressing human PD-L1; human PD-L1 on the cell surface
Experimental: (§1) In brief, the CHO-K1/hPD-L1 cells were digested, and resuspended in F-12K complete medium. The cell density was adjusted to 1× 10⁶ cells/mL. […] Cells were placed at 4° C., and were incubated away from light for 1 hr. Then, the cells were centrifugated at 4° C. for 5 mins, and the supernatant was discarded. […] The cells were washed with 100 μL/well of pre-cooled PBS twice, centrifuged at 500 g, 4° C. for 5 mins, and the supernatant was discarded. […] 200 μL/well of pre-cooled PBS was used to wash cells twice, cells were centrifuged at 500 g, 4° C. for 5 mins, the supernatant was discarded. Finally, 200 μL/well of pre-cooled PBS was used to resuspend cells. The BD FACS MAYTOII was used to read the signal value of fluorescent luminescence. The software GraphPad Prism 8 was applied to perform data processing and plotting analysis, and the parameters such as binding curves and IC50 values were obtained by four-parameter non-linear fitting.

[5] = target: T5, human PD-L1 protein with histidine tag (NovoProtein, C315) (human, UniProt Q9NZQ7 19-239, limits assumed, biotinylated with EZ-Link Sulfo-NHS-LC-Biotin in the epitope competition experiments (Examples 8 and 20); not biotinylated in the affinity experiments); test: BLI (Octet), antibody on AHC sensor, antigen 60 nM, 1:1 local fit
T5 construct: bought reagent; also called biotinylated PD-L1 protein; not shown: histidine tag

[6] = target: T5, human PD-L1 protein with histidine tag …; test: BLI (Octet), antibody on AHC sensor, antigen 50~1.56 nM, 1:1 global fit
Experimental: When using Octet Data Analysis software (Fortebio, version 11.0) for data analysis, the double deduction mode (double reference) was selected to deduct the reference signal, the “1:1 Global fitting” method was selected for data fitting, the kinetic parameters of the binding of the antigen and the antigen binding proteins were calculated, and the kₒₙ (1/Ms) values, kdis (1/s) values and KD (M) values were obtained.

[7] = target: T1, human PD-L1 on Hep3B cells …; test: cell-based or functional assay; remark: listed apart in the source
[8] = target: T4, human PD-L1 on CHO-K1 cells …; test: flow cytometry on CHO-K1/hPD-L1 cells
Text: (§2) To study the binding activity of the PD-L1 antigen binding proteins to human/cynomolgus PD-L1 in vitro, this example uses the CHOK1 cell line overexpressing human PD-L1 (CHO-K1/hPD-L1, Nanjing Genscript, M00543) or the CHOK1 cell line overexpressing cynomolgus PD-L1 (CHO-K1/cynoPD-L1, Nanjing Genscript, M00573) to perform binding experiments at cellular level. In brief, the PD-L1 cells were digested, and resuspended in F-12K complete medium, and the cell density was adjusted to 1× 10⁶ cells/mL. […] The cells were placed at 4° C., incubated away from light for 1 hr. Then, 100 μL/well of pre-cooled PBS was added to wash cells twice. The cells were centrifuged at 500 g, 4° C. for 5 mins, and the supernatant was discarded. […] 200 μL/well of pre-cooled PBS was added to wash cells twice, and the cells were centrifuged at 500 g, 4° C. for 5 mins, and the supernatant was discarded. Finally, the cells were resuspended with 200 μL/well of pre-cooled PBS. The signal values of fluorescent luminescence were read using BD FACS MAYTOII. The flow cytometer BD FAC MAYTOII was used to read the signal values of fluorescent luminescence, and the software FlowJo v10 (FlowJo, LLC) was used to process and analyze data. […]

[9] = target: T4, human PD-L1 on CHO-K1 cells …; test: flow cytometry on CHO-K1/hPD-L1 cells; remark: listed apart in the source
Text: as §2

[10] = target: T4, human PD-L1 on CHO-K1 cells …; test: flow cytometry competition: biotin-hPD-1 binding to CHO-K1/hPD-L1 cells; remark: listed apart in the source
Experimental: as §1

[11] = target: T4, human PD-L1 on CHO-K1 cells …; test: as above; remark: listed apart in the source
Experimental: as §1

T3 sequence (G7PSE7 entry or part of it limits assumed, one chain of several): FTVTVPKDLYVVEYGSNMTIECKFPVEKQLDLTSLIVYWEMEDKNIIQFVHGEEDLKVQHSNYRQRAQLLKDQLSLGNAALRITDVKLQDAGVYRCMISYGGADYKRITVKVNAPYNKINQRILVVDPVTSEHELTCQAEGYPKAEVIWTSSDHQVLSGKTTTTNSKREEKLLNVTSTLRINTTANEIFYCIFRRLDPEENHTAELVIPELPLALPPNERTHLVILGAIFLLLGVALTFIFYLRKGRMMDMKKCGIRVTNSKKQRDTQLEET
T5 sequence (Q9NZQ7 19-239 limits assumed): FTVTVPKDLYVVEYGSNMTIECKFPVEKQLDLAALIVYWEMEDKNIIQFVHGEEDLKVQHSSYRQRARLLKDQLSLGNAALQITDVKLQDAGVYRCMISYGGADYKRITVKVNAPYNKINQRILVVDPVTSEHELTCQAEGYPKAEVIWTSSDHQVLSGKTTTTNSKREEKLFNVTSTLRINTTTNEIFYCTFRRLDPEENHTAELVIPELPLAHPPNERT
T2 sequence (Q9NZQ7 19-238 limits assumed): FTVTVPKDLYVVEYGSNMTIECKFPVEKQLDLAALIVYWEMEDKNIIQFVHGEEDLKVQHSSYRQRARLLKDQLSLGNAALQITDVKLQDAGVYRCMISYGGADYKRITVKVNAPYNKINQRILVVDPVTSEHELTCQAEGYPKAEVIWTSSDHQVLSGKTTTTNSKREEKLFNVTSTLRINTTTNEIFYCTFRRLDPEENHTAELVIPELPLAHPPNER
T4 sequence (Q9NZQ7 19-290, one chain of several): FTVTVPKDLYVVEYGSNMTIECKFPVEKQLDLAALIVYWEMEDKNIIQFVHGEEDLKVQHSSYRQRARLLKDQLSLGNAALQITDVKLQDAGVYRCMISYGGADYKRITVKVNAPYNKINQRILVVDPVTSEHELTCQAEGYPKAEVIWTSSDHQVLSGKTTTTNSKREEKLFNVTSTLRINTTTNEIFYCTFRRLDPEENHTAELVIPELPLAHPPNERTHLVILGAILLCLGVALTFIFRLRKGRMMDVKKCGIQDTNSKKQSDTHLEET
T1 sequence (Q9NZQ7 19-290): as the sequence (Q9NZQ7 19-290, one chain of several) above

EC50 (nM), PD-1 / NFAT-luciferase reporter [1]: 0.759 nM
Maximum fluorescence value (RLU) [1]: 45500 RLU
EC50 [2]: 0.0412 nM
EC50 [3]: 0.759 nM
MFI maximum value [3]: 22200 MFI
IC50 [4]: 1.16 nM
Maximum inhibition rate (%) [4]: 91.3%
B1: PR000268 (antibody, human IgG1, kappa, N297A, V domains shown)
VH: EVQLVESGGGLVQPGGSLRLSCAASGFTFSSYWMSWVRQAPGKGLEWVANIKQDASEKYYGDSVKGRFTISRDNAKNSLYLQMNSLRAEETAVYYCARDRAVAGASDIWGQGTMVTVSS
VL: DIQMTQSPSTLSASVGDRVTITCRASQSISSWLAWYQQKPGKAPNLLIYKASSLETGVPSRFSGSGSGTEFTLTISSLQPDDFATYYCQQYYGYSRTFGQGTKVEIKR
notes: heavy chain human IgG1 (N297A)

EC50 (nM), PD-1 / NFAT-luciferase reporter [1]: 0.533 nM
Maximum fluorescence value (RLU) [1]: 50700 RLU
EC50 [2]: 0.0373 nM
EC50 [3]: 0.451 nM
MFI maximum value [3]: 22600 MFI
Kd [5]: 0.409 nM
koff [5]: 0.000106 s⁻¹
kon [5]: 260000 M⁻¹ s⁻¹
IC50 [4]: 0.604 nM
Maximum inhibition rate (%) [4]: 93.6%
Kd [6]: 0.106 nM
koff [6]: 7.09e-05 s⁻¹
kon [6]: 669000 M⁻¹ s⁻¹
B2: PR000265 (antibody, human IgG1, kappa, N297A)
heavy: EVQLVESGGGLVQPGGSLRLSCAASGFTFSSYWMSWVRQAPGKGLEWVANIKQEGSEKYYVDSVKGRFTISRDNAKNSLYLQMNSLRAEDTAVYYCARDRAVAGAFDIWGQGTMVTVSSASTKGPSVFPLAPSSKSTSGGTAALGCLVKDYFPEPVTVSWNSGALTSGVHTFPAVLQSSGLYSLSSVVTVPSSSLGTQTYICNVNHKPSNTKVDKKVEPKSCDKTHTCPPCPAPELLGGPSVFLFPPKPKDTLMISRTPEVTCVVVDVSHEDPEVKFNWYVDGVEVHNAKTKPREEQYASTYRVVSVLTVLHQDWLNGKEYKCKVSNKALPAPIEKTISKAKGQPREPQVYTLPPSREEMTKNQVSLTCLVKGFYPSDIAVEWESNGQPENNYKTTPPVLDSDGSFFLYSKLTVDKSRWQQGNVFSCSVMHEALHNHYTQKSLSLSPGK
light: DIQMTQSPSTLSASVGDRVTVTCRASQSIYIWLAWYQQKPGKAPNLLIYKASSLETGVPSRFSGSGSGTEFTLTISSLQPDDFATYYCQQYYGSSRTFGQGTKVEIKRTVAAPSVFIFPPSDEQLKSGTASVVCLLNNFYPREAKVQWKVDNALQSGNSQESVTEQDSKDSTYSLSSTLTLSKADYEKHKVYACEVTHQGLSSPVTKSFNRGEC
notes: as for B1

EC50 (nM), PD-1 / NFAT-luciferase reporter [1]: 0.68 nM
Maximum fluorescence value (RLU) [1]: 48400 RLU
EC50 [2]: 0.0415 nM
EC50 [3]: 0.562 nM
MFI maximum value [3]: 22400 MFI
Kd [5]: 0.349 nM
koff [5]: 9.62e-05 s⁻¹
kon [5]: 276000 M⁻¹ s⁻¹
IC50 [4]: 0.838 nM
Maximum inhibition rate (%) [4]: 91.5%
B3: PR000266 (antibody, human IgG1, kappa, N297A, V domains shown)
VH: B1 VH with G61V, E90D, S106F
VL: B1 VL with I21V, S30Y, S31I, Y94S
notes: as for B1

EC50 (nM), PD-1 reporter gene cell line [7]: 0.077 nM
Maximum fluorescence value (RLU) [7]: 3660 RLU
EC50 [8]: 0.259 nM
MFI maximum value [8]: 40400 MFI
EC50 [9]: 0.231 nM
MFI maximum value [9]: 37900 MFI
IC50 [10]: 0.127 nM
IC50 [11]: 0.19 nM
B4: PR000416 (antibody, human IgG1, kappa)
heavy: not shown
light: B2 light
notes: PR000265 with the heavy chain constant region replaced by the human IgG1 constant region without mutation; also called Fc-type switching of PR000265
